The text below walks through data of patent US9574173 (ACCELERATED BIOSCIENCES, dated 2017).

The target of experiment [1] is mechanistic target of rapamycin (mTOR) (human, UniProt P42345 1-2549). The experiment can be described thus: immunoprecipitation and Western blot, RA-treated hTS cells (FIG. 28d). On the technique in general: A western blot detects proteins with antibodies after separation by electrophoresis.
Experiment [2] deals with T1, E1A binding protein p300 (EP300) (human, UniProt Q09472 2-2414).
T1 construct: Endogenous protein of RA-treated hTS cells; also called ER300
T1 sequence (Q09472 2-2414 limits assumed): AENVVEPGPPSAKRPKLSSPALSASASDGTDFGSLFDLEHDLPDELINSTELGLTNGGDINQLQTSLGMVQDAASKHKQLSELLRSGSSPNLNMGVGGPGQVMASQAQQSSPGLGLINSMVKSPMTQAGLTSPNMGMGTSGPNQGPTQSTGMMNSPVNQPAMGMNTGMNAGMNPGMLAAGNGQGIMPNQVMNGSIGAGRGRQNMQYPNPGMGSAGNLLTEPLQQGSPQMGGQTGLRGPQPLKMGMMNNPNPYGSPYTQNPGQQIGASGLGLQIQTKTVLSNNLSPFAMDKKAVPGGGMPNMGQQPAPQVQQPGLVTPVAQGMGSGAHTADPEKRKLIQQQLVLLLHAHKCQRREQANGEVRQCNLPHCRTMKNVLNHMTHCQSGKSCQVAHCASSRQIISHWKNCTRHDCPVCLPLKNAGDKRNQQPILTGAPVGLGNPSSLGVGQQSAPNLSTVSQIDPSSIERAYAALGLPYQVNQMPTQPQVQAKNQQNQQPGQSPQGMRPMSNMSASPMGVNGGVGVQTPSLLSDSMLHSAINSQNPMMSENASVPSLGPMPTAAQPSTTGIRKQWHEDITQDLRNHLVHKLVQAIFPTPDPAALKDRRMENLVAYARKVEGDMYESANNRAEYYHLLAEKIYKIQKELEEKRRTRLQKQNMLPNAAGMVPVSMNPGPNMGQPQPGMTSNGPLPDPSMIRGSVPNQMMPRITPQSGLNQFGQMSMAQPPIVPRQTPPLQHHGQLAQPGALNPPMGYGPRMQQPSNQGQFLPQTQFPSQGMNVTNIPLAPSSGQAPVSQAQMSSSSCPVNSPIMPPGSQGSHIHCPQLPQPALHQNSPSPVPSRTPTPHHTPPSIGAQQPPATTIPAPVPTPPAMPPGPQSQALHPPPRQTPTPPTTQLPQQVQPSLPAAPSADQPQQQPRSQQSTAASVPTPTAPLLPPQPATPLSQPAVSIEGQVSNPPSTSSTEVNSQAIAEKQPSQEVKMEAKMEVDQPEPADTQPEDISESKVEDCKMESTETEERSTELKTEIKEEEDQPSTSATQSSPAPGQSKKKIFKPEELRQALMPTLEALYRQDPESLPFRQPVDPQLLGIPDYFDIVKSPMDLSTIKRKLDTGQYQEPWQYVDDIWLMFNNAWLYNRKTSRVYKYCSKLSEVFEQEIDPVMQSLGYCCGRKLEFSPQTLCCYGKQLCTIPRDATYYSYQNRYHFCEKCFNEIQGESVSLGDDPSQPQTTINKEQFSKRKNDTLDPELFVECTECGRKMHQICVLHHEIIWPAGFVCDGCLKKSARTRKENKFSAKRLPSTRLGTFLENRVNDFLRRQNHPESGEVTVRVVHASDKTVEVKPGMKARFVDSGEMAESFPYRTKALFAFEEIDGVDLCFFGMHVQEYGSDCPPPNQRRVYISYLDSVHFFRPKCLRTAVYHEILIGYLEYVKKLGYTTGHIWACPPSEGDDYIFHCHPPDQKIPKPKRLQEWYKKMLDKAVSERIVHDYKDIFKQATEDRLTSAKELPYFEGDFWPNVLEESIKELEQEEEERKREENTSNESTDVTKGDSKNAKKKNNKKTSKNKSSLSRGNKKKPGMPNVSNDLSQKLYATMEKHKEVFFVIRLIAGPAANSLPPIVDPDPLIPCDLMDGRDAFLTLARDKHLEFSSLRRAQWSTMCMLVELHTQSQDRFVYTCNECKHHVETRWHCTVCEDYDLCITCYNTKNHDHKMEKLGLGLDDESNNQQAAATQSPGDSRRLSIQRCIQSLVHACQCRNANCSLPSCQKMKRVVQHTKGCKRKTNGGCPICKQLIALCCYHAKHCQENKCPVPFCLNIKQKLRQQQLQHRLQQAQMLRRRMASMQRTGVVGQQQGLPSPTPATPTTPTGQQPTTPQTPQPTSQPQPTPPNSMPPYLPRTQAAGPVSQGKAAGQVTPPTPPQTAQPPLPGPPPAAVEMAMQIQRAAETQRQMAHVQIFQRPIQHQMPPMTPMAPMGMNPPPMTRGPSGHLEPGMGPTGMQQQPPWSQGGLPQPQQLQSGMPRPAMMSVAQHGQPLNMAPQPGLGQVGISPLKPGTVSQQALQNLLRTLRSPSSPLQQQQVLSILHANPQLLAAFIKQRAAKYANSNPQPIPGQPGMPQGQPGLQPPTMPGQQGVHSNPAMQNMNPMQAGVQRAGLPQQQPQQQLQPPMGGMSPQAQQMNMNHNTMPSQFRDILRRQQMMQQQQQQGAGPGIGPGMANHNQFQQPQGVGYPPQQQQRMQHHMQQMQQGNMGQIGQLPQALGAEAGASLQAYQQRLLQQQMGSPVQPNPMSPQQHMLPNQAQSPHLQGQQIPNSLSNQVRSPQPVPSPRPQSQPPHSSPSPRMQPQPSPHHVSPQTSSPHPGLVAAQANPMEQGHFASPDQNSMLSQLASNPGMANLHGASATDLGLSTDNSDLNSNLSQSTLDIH
The experiment can be described thus: immunoprecipitation and Western blot, RA-treated hTS cells (FIG. 22c).

B1: rac-gamma serine/threonine-protein kinase (AKt3) (enzyme)
chain: SDVTIVKEGWVQKRGEYIKNWRPRYFLLKTDGSFIGYKEKPQDVDLPYPLNNFSVAKCQLMKTERPKPNTFIIRCLQWTTVIERTFHVDTPEEREEWTEAIQAVADRLQRQEEERMNCSPTSQIDNIGEEEMDASTTHHKRKTMNDFDYLKLLGKGTFGKVILVREKASGKYYAMKILKKEVIIAKDEVAHTLTESRVLKNTRHPFLTSLKYSFQTKDRLCFVMEYVNGGELFFHLSRERVFSEDRTRFYGAEIVSALDYLHSGKIVYRDLKLENLMLDKDGHIKITDFGLCKEGITDAATMKTFCGTPEYLAPEVLEDNDYGRAVDWWGLGVVMYEMMCGRLPFYNQDHEKLFELILMEDIKFPRTLSSDAKSLLSGLLIKDPNKRLGGGPDDAKEIMRHSFFSGVNWQDVYDKKLVPPFKPQVTSETDTRYFDEEFTAQTITITPPEKYDEDGMDCMDNERRPHFPQFSYSASGRE
notes: Endogenous protein of RA-treated hTS cells
For the molecule B1, the binding result in experiment [1] is given as “binds”.

B2: myocyte enhancer factor 2A (MEF2A) (other, human, UniProt Q02078 1-507, looked up)
chain: MGRKKIQITRIMDERNRQVTFTKRKFGLMKKAYELSVLCDCEIALIIFNSSNKLFQYASTDMDKVLLKYTEYNEPHESRTNSDIVEALNKKEHRGCDSPDPDTSYVLTPHTEEKYKKINEEFDNMMRNHKIAPGLPPQNFSMSVTVPVTSPNALSYTNPGSSLVSPSLAASSTLTDSSMLSPPQTTLHRNVSPGAPQRPPSTGNAGGMLSTTDLTVPNGAGSSPVGNGFVNSRASPNLIGATGANSLGKVMPTKSPPPPGGGNLGMNSRKPDLRVVIPPSSKGMMPPLSEEEELELNTQRISSSQATQPLATPVVSVTTPSLPPQGLVYSAMPTAYNTDYSLTSADLSALQGFNSPGMLSLGQVSAWQQHHLGQAALSSLVAGGQLSQGSNLSINTNQNISIKSEPISPPRDRMTPSGFQQQQQQQQQQQPPPPPQPQPQPPQPQPRQEMGRSPVDSLSSSSSSYDGSDREDPRGDFHSPIVLGRPPNTEDRESPSVKRMRMDAWVT
notes: as for B1
Regarding B2, the binding result in experiment [2] is “binds”.
